# Source: publication PMC11844651, “How RAG1/2 evolved from ancestral transposases to initiate V(D)J recombination without transposition” (Research Square, 2025)
# T1: mouse RAG1 (aa 265–1040) (mouse, UniProt P15919 265-1040)
# T1 sequence (looked up): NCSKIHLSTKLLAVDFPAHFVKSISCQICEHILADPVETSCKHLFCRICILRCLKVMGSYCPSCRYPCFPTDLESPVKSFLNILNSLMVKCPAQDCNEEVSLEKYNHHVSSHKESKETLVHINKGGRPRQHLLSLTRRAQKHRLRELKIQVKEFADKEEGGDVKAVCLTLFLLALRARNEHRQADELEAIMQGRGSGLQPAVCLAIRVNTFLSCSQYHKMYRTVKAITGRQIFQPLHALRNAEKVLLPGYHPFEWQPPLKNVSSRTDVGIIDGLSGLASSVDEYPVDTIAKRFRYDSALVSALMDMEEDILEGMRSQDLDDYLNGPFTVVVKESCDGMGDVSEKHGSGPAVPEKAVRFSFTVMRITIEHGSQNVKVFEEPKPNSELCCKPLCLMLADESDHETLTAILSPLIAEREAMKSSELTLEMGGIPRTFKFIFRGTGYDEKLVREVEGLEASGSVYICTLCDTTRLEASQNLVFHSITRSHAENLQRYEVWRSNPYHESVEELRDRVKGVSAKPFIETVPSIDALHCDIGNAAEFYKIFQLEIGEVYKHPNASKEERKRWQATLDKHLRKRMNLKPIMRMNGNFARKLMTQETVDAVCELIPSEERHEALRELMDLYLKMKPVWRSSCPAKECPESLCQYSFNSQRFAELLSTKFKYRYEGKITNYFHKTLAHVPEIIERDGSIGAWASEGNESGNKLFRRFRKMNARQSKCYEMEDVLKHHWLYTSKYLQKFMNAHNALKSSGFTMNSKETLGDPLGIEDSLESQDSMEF
# B1: mouse T490A RAG2 (aa 1–520) (natural protein, UniProt P21784 1-520, looked up)
# chain: MSLQMVTVGHNIALIQPGFSLMNFDGQVFFFGQKGWPKRSCPTGVFHFDIKQNHLKLKPAIFSKDSCYLPPLRYPATCSYKGSIDSDKHQYIIHGGKTPNNELSDKIYIMSVACKNNKKVTFRCTEKDLVGDVPEPRYGHSIDVVYSRGKSMGVLFGGRSYMPSTQRTTEKWNSVADCLPHVFLIDFEFGCATSYILPELQDGLSFHVSIARNDTVYILGGHSLASNIRPANLYRIRVDLPLGTPAVNCTVLPGGISVSSAILTQTNNDEFVIVGGYQLENQKRMVCSLVSLGDNTIEISEMETPDWTSDIKHSKIWFGSNMGNGTIFLGIPGDNKQAMSEAFYFYTLRCSEEDLSEDQKIVSNSQTSTEDPGDSTPFEDSEEFCFSAEATSFDGDDEFDTYNEDDEDDESVTGYWITCCPTCDVDINTWVPFYSTELNKPAMIYCSHGDGHWVHAQCMDLEERTLIHLSEGSNKYYCNEHVQIARALQAPKRNPPLQKPPMKSLHKKGSGKVLTPAKKS
# Molecular target: T1, mouse RAG1 (aa 265–1040)
# Assay: cell-based or functional assay
binder,measurement,value
B1,RSS DNA hairpinning (pre-nicked RSS substrates) with the long (21 aa) H3K4me3 peptide (1 μM) against no peptide,< 2 fold
same,transposition of SEC into supercoiled pUC19 (double-ended joint product) with the long (21 aa) H3K4me3 peptide (20 μM) against no peptide,22 fold
